From patent publication CN116836273A
pKd: −log10 of the molar value.

Legend:
[1] = molecular target: 血清淀粉样蛋白A (Serum amyloid A, SAA) (UniProt P0DJI8); experiment: BLI, antibody captured on AMC sensor, SAA in solution
[2] = molecular target: 血清淀粉样蛋白A (Serum amyloid A, SAA) (UniProt P0DJI8); experiment: indirect ELISA, SAA coated at 2 ug/ml, antibody at 15 ng/ml
[3] = molecular target: 血清淀粉样蛋白A (Serum amyloid A, SAA) (UniProt P0DJI8); experiment: indirect ELISA, SAA coated at 2 ug/ml, antibody at 30 ng/ml
[4] = molecular target: 血清淀粉样蛋白A (Serum amyloid A, SAA) (UniProt P0DJI8); experiment: indirect ELISA, SAA coated at 2 ug/ml, antibody at 60 ng/ml
[5] = molecular target: 血清淀粉样蛋白A (Serum amyloid A, SAA) (UniProt P0DJI8); experiment: indirect ELISA, SAA coated at 2 ug/ml, antibody at 7.5 ng/ml
[6] = molecular target: 血清淀粉样蛋白A (Serum amyloid A, SAA) (UniProt P0DJI8); experiment: indirect ELISA, SAA coated at 2 ug/ml, antibody at 3.75 ng/ml
[7] = molecular target: 血清淀粉样蛋白A (Serum amyloid A, SAA) (UniProt P0DJI8); experiment: indirect ELISA, SAA coated at 2 ug/ml, antibody at 0 ng/ml (blank)

Sequence of UniProt P0DJI8 (P0DJI8 19-122 limits assumed): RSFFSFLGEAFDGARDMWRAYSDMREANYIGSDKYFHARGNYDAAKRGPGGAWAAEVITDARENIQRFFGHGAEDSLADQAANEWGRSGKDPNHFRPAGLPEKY

pKd [1]: 8.10
koff [1]: 9.82e-05 s⁻¹
kon [1]: 12300 M⁻¹ s⁻¹
OD (OD450 (ref. 630 nm)) [2]: 0.912
OD (OD450 (ref. 630 nm)) [3]: 1.63
OD (OD450 (ref. 630 nm)) [4]: 1.79
OD (OD450 (ref. 630 nm)) [5]: 0.562
OD (OD450 (ref. 630 nm)) [6]: 0.316
OD (OD450 (ref. 630 nm)) [7]: 0.009
Substance: 对照 (control antibody)
